From the array DNA melting data of Ke et al.

Test: melting temperature; melt of duplexes
Conditions: sodium 0.0675 M; strand 1 µM

Q: With “CGACGTGCTACATGTGCTG+CAGCACATGCAGCACGTCG (((((((((.(((((((((+))))))))).)))))))))” as the substance, how does the Tm read?
A: 58.1 °C

Q: For “CGACGTGCCCGATGTGCTG+CAGCACATAGTGCACGTCG ((((((((.(.((((((((+)))))))).).))))))))”, which Tm is on record?
A: 48 °C

Q: Which Tm does the source give for “CGACGTGCGTGATGTGCTG+CAGCACATTGCGCACGTCG (((((((((..((((((((+))))))))..)))))))))” here?
A: 58 °C

Q: Which Tm does the source give for “CGACGTGCCGTATGTGCTG+CAGCACATCATGCACGTCG ((((((((...((((((((+))))))))...))))))))” here?
A: 48.9 °C

Q: For “CGACGTGCGCCATGTGCTG+CAGCACATCCTGCACGTCG ((((((((...((((((((+))))))))...))))))))”, which Tm is on record?
A: 47.3 °C

Q: Which Tm does the source give for “CGACGTGCCTTATGTGCTG+CAGCACATTAGGCACGTCG ((((((((((.((((((((+)))))))).))))))))))” here?
A: 58 °C

Q: For “CGACGTGCGAAATGTGCTG+CAGCACATCCAGCACGTCG ((((((((...((((((((+))))))))...))))))))”, which Tm is on record?
A: 50.8 °C

Q: For “CGACGTGCTCGATGTGCTG+CAGCACATCAGGCACGTCG ((((((((..(((((((((+)))))))))..))))))))”, which Tm is on record?
A: 55.4 °C

Q: For “CGACGTGCCTCATGTGCTG+CAGCACATTAGGCACGTCG ((((((((((.((((((((+)))))))).))))))))))”, which Tm is on record?
A: 56.3 °C

Q: For “CGACGTGCGACATGTGCTG+CAGCACATCTGGCACGTCG ((((((((.(.((((((((+)))))))).).))))))))”, which Tm is on record?
A: 49 °C

Q: For “CGACGTGCATGATGTGCTG+CAGCACATTCGGCACGTCG ((((((((...((((((((+))))))))...))))))))”, which Tm is on record?
A: 50.3 °C

Q: For “CGACGTGCACTATGTGCTG+CAGCACATGATGCACGTCG (((((((((..((((((((+))))))))..)))))))))”, which Tm is on record?
A: 48.8 °C

Q: For “CGACGTGCTTCATGTGCTG+CAGCACATTTGGCACGTCG ((((((((...((((((((+))))))))...))))))))”, which Tm is on record?
A: 48.6 °C

Q: Which Tm does the source give for “CGACGTGCAGGATGTGCTG+CAGCACATGGAGCACGTCG ((((((((...((((((((+))))))))...))))))))” here?
A: 50.3 °C

Q: For “CGACGTGCAATATGTGCTG+CAGCACATTCTGCACGTCG (((((((((..((((((((+))))))))..)))))))))”, which Tm is on record?
A: 50.7 °C

Q: For “CGACGTGCTGAATGTGCTG+CAGCACATTCAGCACGTCG (((((((((((((((((((+)))))))))))))))))))”, which Tm is on record?
A: 64.4 °C

Q: With “CGACGTGCACCATGTGCTG+CAGCACATTAAGCACGTCG ((((((((...((((((((+))))))))...))))))))” as the substance, how does the Tm read?
A: 43.9 °C

Q: For “CGACGTGCCGTATGTGCTG+CAGCACATAAAGCACGTCG ((((((((..(((((((((+)))))))))..))))))))”, which Tm is on record?
A: 51.5 °C

Q: Which Tm does the source give for “CGACGTGCACCATGTGCTG+CAGCACATGTAGCACGTCG ((((((((..(((((((((+)))))))))..))))))))” here?
A: 50.9 °C

Q: For “CGACGTGCTTGATGTGCTG+CAGCACATGAAGCACGTCG ((((((((((.((((((((+)))))))).))))))))))”, which Tm is on record?
A: 56.6 °C

Q: Which Tm does the source give for “CGACGTGCTTCATGTGCTG+CAGCACATACGGCACGTCG ((((((((...((((((((+))))))))...))))))))” here?
A: 47.7 °C

Q: For “CGACGTGCGACATGTGCTG+CAGCACATTATGCACGTCG ((((((((...((((((((+))))))))...))))))))”, which Tm is on record?
A: 50.1 °C

Q: With “CGACGTGCCGAATGTGCTG+CAGCACATTCGGCACGTCG (((((((((((((((((((+)))))))))))))))))))” as the substance, how does the Tm read?
A: 66.5 °C

Q: For “CGACGTGCTGTATGTGCTG+CAGCACATTCAGCACGTCG ((((((((((.((((((((+)))))))).))))))))))”, which Tm is on record?
A: 57.5 °C

Q: With “CGACGTGCGCGATGTGCTG+CAGCACATAACGCACGTCG (((((((((..((((((((+))))))))..)))))))))” as the substance, how does the Tm read?
A: 54.4 °C

Q: With “CGACGTGCGGAATGTGCTG+CAGCACATCCTGCACGTCG ((((((((.(.((((((((+)))))))).).))))))))” as the substance, how does the Tm read?
A: 55.2 °C

Q: Which Tm does the source give for “CGACGTGCGACATGTGCTG+CAGCACATCAAGCACGTCG ((((((((...((((((((+))))))))...))))))))” here?
A: 52.6 °C

Q: Which Tm does the source give for “CGACGTGCTGTATGTGCTG+CAGCACATAGAGCACGTCG (((((((((.(((((((((+))))))))).)))))))))” here?
A: 55.9 °C

Q: For “CGACGTGCAGTATGTGCTG+CAGCACATGTAGCACGTCG ((((((((...((((((((+))))))))...))))))))”, which Tm is on record?
A: 49.8 °C

Q: Which Tm does the source give for “CGACGTGCTCGATGTGCTG+CAGCACATATGGCACGTCG ((((((((...((((((((+))))))))...))))))))” here?
A: 50.5 °C

Q: Which Tm does the source give for “CGACGTGCCATATGTGCTG+CAGCACATAACGCACGTCG ((((((((..(((((((((+)))))))))..))))))))” here?
A: 49.1 °C

Q: Which Tm does the source give for “CGACGTGCCGTATGTGCTG+CAGCACATGGTGCACGTCG ((((((((...((((((((+))))))))...))))))))” here?
A: 46.6 °C

Q: Which Tm does the source give for “CGACGTGCCTTATGTGCTG+CAGCACATAACGCACGTCG ((((((((.((((((((((+)))))))))).))))))))” here?
A: 52.2 °C

Q: For “CGACGTGCGAAATGTGCTG+CAGCACATCATGCACGTCG ((((((((...((((((((+))))))))...))))))))”, which Tm is on record?
A: 49.9 °C

Q: Which Tm does the source give for “CGACGTGCCGTATGTGCTG+CAGCACATTGTGCACGTCG ((((((((...((((((((+))))))))...))))))))” here?
A: 45.5 °C

Q: With “CGACGTGCACGATGTGCTG+CAGCACATCATGCACGTCG (((((((((.(((((((((+))))))))).)))))))))” as the substance, how does the Tm read?
A: 55.3 °C

Q: With “CGACGTGCTACATGTGCTG+CAGCACATCCTGCACGTCG ((((((((...((((((((+))))))))...))))))))” as the substance, how does the Tm read?
A: 48.3 °C

Q: With “CGACGTGCGCGATGTGCTG+CAGCACATATAGCACGTCG ((((((((...((((((((+))))))))...))))))))” as the substance, how does the Tm read?
A: 51.8 °C

Q: With “CGACGTGCTTGATGTGCTG+CAGCACATTGGGCACGTCG ((((((((...((((((((+))))))))...))))))))” as the substance, how does the Tm read?
A: 50.7 °C

Q: For “CGACGTGCCCTATGTGCTG+CAGCACATCAGGCACGTCG (((((((((..((((((((+))))))))..)))))))))”, which Tm is on record?
A: 53.8 °C

Q: Which Tm does the source give for “CGACGTGCACGATGTGCTG+CAGCACATTCTGCACGTCG (((((((((..((((((((+))))))))..)))))))))” here?
A: 49.2 °C

Q: With “CGACGTGCGCAATGTGCTG+CAGCACATTGTGCACGTCG ((((((((.((((((((((+)))))))))).))))))))” as the substance, how does the Tm read?
A: 59.9 °C

Q: For “CGACGTGCAGGATGTGCTG+CAGCACATAACGCACGTCG ((((((((...((((((((+))))))))...))))))))”, which Tm is on record?
A: 50.8 °C

Q: Which Tm does the source give for “CGACGTGCCACATGTGCTG+CAGCACATGCAGCACGTCG ((((((((..(((((((((+)))))))))..))))))))” here?
A: 53.6 °C

Q: With “CGACGTGCACCATGTGCTG+CAGCACATTCAGCACGTCG ((((((((...((((((((+))))))))...))))))))” as the substance, how does the Tm read?
A: 42.6 °C

Q: Which Tm does the source give for “CGACGTGCTAAATGTGCTG+CAGCACATCTGGCACGTCG ((((((((.(.((((((((+)))))))).).))))))))” here?
A: 51.1 °C

Q: Which Tm does the source give for “CGACGTGCGTAATGTGCTG+CAGCACATTCGGCACGTCG ((((((((..(((((((((+)))))))))..))))))))” here?
A: 53.1 °C

Q: Which Tm does the source give for “CGACGTGCCGTATGTGCTG+CAGCACATCTTGCACGTCG ((((((((...((((((((+))))))))...))))))))” here?
A: 48.5 °C

Q: For “CGACGTGCGGAATGTGCTG+CAGCACATAACGCACGTCG (((((((((..((((((((+))))))))..)))))))))”, which Tm is on record?
A: 58.6 °C

Q: For “CGACGTGCCACATGTGCTG+CAGCACATAAGGCACGTCG (((((((((..((((((((+))))))))..)))))))))”, which Tm is on record?
A: 54 °C

Q: With “CGACGTGCGGTATGTGCTG+CAGCACATCCAGCACGTCG ((((((((.(.((((((((+)))))))).).))))))))” as the substance, how does the Tm read?
A: 55.1 °C

Q: Which Tm does the source give for “CGACGTGCCATATGTGCTG+CAGCACATTCTGCACGTCG ((((((((...((((((((+))))))))...))))))))” here?
A: 48.8 °C
